Patent publication US9309288B2, “Selective αvβ3 receptor peptide antagonist for therapeutic and diagnostic applications” (ADVANCED ACCELERATOR APPLICATIONS, priority 2005, dated 2016)

Target: αvβ3 (Homo sapiens, UniProt P05106+P06756)
Experiment: Cell adhesion assay, αvβ3 overexpressing K562 cells (Kαvβ3) on vitronectin
Assay type: cell-based
Set-up: expressed in transfected cells; host or cells: K562 (human erythroleukemia), gift of Dr. S. D. Blystone
Conditions: 10 μM peptide
Procedure: Cell Adhesion and Competitive Assay: Human erythroleukemia K562 cells, stably cotransfected with cDNA of αv or αIIb subunit and β3 or β5 subunits, were kindly provided by Dr. S. D. Blystone (SUNY Upstate Medical University, Syracuse, N.Y.). Cells were maintained in Iscove's Modified Dubecco's Medium (IMDM) supplemented with 10% heat-inactivated fetal bovine serum, 100 IU/ml penicillin, 50 μg/mL streptomycin and 500 μg/mL G418 in a humidified incubator with 5% CO2 at 37° C. […] Cells were used to determine affinity for αvβ3 and cross-reactivity with αvβ5 and αIIbβ3 integrin.
Briefly, 24-well flat-bottom plates were incubated overnight with 5 μg/mL vitronectin. The pre-coated plates were rinsed with PBS, incubated for 1 h at 23° C. with 1% heat-denatured bovine serum albumin, and rinsed again. Then, αvβ3 overexpressing K562 cells were incubated with various concentrations of cyclic RGD peptides or diluents for 1 h at 4° C. Peptide-treated cells (0.2-0.5×106/100 μL/well) were seeded onto pre-coated plates and allowed to adhere for 1 h at 37° C. in 5% CO2. Non-adherent cells were removed with gentle washing, whereas adherent cells were detached by trypsinization and counted. Three different adhesion assays were performed in duplicates.
All synthesized peptides were tested for their ability to inhibit cell adhesion to vitronectin. […]

Sequence of αvβ3 (P06756 31-889 limits assumed): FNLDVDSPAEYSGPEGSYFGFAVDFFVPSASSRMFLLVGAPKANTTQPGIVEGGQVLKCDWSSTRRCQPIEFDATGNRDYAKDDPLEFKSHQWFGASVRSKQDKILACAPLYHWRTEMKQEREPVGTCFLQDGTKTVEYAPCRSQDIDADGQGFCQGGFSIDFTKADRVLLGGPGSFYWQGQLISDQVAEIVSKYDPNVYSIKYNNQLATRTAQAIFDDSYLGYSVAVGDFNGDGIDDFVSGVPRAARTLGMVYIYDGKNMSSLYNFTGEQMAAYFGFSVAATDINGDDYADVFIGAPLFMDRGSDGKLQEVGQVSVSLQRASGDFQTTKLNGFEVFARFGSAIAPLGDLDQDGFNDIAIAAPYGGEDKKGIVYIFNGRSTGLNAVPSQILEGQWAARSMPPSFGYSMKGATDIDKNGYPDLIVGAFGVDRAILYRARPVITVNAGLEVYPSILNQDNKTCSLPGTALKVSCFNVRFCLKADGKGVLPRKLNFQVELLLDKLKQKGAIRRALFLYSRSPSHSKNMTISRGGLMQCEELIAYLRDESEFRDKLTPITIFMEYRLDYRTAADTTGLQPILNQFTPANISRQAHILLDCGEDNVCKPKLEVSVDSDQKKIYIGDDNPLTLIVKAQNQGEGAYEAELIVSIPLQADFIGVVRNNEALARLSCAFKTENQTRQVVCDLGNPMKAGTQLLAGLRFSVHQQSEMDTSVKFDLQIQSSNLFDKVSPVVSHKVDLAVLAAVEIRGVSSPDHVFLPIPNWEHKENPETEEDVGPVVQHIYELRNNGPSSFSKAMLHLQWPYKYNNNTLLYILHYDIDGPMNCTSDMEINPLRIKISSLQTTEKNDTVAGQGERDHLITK
Sequence of αvβ3 (P06756 891-1048 partner limits assumed): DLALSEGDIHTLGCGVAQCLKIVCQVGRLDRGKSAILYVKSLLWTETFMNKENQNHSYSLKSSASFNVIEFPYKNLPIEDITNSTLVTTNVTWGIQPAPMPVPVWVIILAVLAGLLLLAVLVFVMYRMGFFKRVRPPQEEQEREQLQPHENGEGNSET
Sequence of αvβ3 (P05106 27-788): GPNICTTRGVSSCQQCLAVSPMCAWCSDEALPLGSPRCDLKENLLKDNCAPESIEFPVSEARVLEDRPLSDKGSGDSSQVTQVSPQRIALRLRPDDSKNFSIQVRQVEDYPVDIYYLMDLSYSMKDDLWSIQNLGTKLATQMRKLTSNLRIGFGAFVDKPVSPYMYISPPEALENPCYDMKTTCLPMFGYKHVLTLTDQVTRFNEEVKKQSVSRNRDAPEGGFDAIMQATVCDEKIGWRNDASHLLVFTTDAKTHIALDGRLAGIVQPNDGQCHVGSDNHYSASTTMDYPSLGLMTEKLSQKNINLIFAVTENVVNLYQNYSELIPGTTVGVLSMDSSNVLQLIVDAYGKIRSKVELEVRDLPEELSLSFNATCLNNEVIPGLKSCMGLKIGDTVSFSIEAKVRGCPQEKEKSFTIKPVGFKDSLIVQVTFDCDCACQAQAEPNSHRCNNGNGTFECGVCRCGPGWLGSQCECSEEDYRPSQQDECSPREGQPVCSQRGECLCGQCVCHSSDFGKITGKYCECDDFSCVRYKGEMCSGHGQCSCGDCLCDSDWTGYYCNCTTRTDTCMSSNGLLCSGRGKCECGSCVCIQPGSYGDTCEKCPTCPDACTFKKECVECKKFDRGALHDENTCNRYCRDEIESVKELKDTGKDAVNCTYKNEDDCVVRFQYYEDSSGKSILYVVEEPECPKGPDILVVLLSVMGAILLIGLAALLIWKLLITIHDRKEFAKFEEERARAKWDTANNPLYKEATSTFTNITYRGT

| Substance | cell adhesion remaining as compared to untreated control cells [%] |
| --- | --- |
| RNPHKGPAT [echi 11-19] | 97.5 |
| echi6-19: fragment of the RGDechi sequence (SEQ ID NO: 2) (MDDPGRNPHKGPAT) | 99.0 |
